The text below walks through data of publication PMC5736309.

The target of this experiment is Y1F Rpb1 (Rpb1 with a CTD of 26 FSPTSPS repeats) (S. cerevisiae). The experiment in a line: co-IP.

B1: 3HA-tagged Nrd1 (natural protein)
chain: MQQDDDFQNFVATLESFKDLKSGISGSRIKKLTTYALDHIDIESKIISLIIDYSRLCPDSHKLGSLYIIDSIGRAYLDETRSNSNSSSNKPGTCAHAINTLGEVIQELLSDAIAKSNQDHKEKIRMLLDIWDRSGLFQKSYLNAIRSKCFAMDISNNTANTASQQLSLDPKQRSKQILSNLKKSPPLNLNISLPTDLTSTDPAKQQAALFQVIAALQKHFKTLPSHTSVGTVAPPQAHTITEYGSRRERERERERYNSRRNRSRSPPAPFSQPSTGRKDRYPSVAQDQYSIGAPNTTFGTNNHHLYPDELNVSNNPHYRPKPVSYDSTLPPDHIKVYSRTLFIGGVPLNMKEWDLANVLKPFAEVQSVILNNSRKHAFVKVYSRHEAENVLQNFNKDGALPLRTRWGVGFGPRDCCDYQHGYSIIPMHRLTDADKKWSVSAQWGGTSGQPLVTGIVFEEPDIIVGEGVSSKAISQKMPTDSGRNGPRSGKPNKSGSISSISPVPYGNAPLASPPPQQYVQPMMQQPYGYAPNQPLPSQGPAAAAPPVPQQQFDPTAQLNSLMNMLNQQQQQQQQS
Consider B1, for which the fold change in binding against WT Rpb1 was found to be 7.3 fold.
